Data: the supplement of paper PMC10567573

B1: FCHO1 (parent)
chain: FTSSPSPFSSSSPENVEDSGLDSP
B2: FAM107A (parent)
chain: HRRGLGVDSKPELQRVLEHRRRNQ

Variants of: B1
Assay: protein stability index of a GFP-peptide fusion (GPS, HEK-293T) (PSI 1-6); higher = more stable
Settings: c terminus: a fixed tail appended
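Also: lentivirally expressed fusions sorted by FACS into six bins by GFP to DsRed ratio, PSI derived from sequencing read proportions per bin multiplied by bin number.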

Protein stability index: each site, then its substitutions
P7: I 1.74, K 2.28, G 2.89, L 1.91, T 2.38, R 2.09, S 2.25, N 1.96, Y 2.49, C 1.56, D 3.19, A 2.25, V 2.24, H 2.12, Q 1.86, F 1.93, E 2.79, M 2.1
S11: W 2.39, A 2.05, M 1.76, D 2.75, G 1.33, Q 2.06, N 1.55, Y 2.25, L 1.63, R 2.01, V 1.77, K 1.86, F 1.62, C 2.65, P 1.86, E 2.18, H 1.83, I 2.23, T 1.67
F1: A 5.3, C 5.43, G 5.46, N 5.29, P 5.41, E 5.62, Y 1.88, R 5.69, M 5.34, V 5.51, L 5.78, D 5.61, K 5.56, S 5.49, I 5.67, Q 5.16, W 5.16, H 4.74, T 5.38
F8: T 5.39, V 4.45, L 3.74, R 4.29, H 5.05, E 5.2, K 5.34, Y 2.04, C 3.77, M 4.53, G 4.72, P 4.95, A 5.11, I 4.48, N 4.9, S 5.08, Q 4.95, D 5.5
S3: L 3.8, H 2.32, N 2.71, M 2.38, C 2.01, R 3.59, I 3.05, E 2.79, W 2.61, K 3.48, T 1.87, Q 2.42, D 2.7, Y 2.85, F 2.6, G 1.38, A 2.26, P 2.52, V 2.05
P13: H 2.29, V 2.28, R 1.85, D 2.1, Q 2.39, L 2.21, Y 2.04, N 1.66, I 2.05, C 1.53, F 2.49, T 1.77, K 2.14, E 2.44, M 1.58, S 2.13, W 1.83, G 1.93, A 1.77
S9: C 2.22, F 2.34, E 2.83, P 3.79, W 2.71, Y 2.45, K 1.89, M 2.02, H 1.84, L 2.17, V 1.73, Q 2.06, T 2.29, D 2.67, G 2.2, I 2.91, R 1.76, A 2.09, N 2.08
N15: G 1.64, E 1.82, M 2.57, Q 1.81, P 2.95, A 2.13, K 1.43, W 2.39, R 1.71, H 1.66, D 2.25, V 2.46, I 2.05, T 2.04, L 2.01, S 2.33, Y 1.6, C 2.24, F 1.73
P5: R 2.08, H 2.23, M 2.02, S 2.67, D 2.43, A 1.88, E 2.04, Y 1.9, V 2.17, Q 2.16, G 2.06, F 2.32, N 2.09, K 2.31, L 1.91, W 1.87, I 1.81, T 1.69, C 1.96
T2: Y 4.84, W 3.64, F 4.58, N 3.96, H 2.02, V 2.93, M 3.48, G 2.71, Q 1.58, L 3.48, R 5.01, E 5.36, C 2.02, K 5.53, P 2.65, S 2.86, I 2.14, D 4.91, A 2.26
S10: N 2.3, V 2.06, G 2.02, R 2.56, E 2.05, Q 1.92, Y 2.07, A 2.53, I 2.7, F 2.09, C 2.14, T 2.15, H 2, K 1.88, M 1.94, W 2.7, L 1.71, P 2.3, D 1.93
V16: D 2.39, F 1.75, P 1.6, K 1.9, L 1.7, N 1.86, S 2.15, Q 1.91, W 2.16, E 1.81, R 2.08, M 1.68, H 2.27, I 2.25, T 2.52, A 2.47, Y 2.03, G 2.75, C 2.44
E14: Y 1.72, L 2.22, V 2.15, C 1.69, F 1.64, H 1.95, A 1.96, I 1.9, D 2.4, Q 2.31, M 2.05, R 1.61, T 1.84, N 2.14, G 1.92, K 2.1, W 2.78, S 2.17, P 1.94
S4: W 3.58, V 1.8, T 1.93, H 1.91, F 2.9, Y 1.95, M 1.73, L 2.31, E 3.14, N 2.06, D 2.03, A 1.71, R 1.42, P 3.53, G 2, Q 2.14, I 2.19, K 2.13, C 2.35
S6: V 1.99, G 2.02, Q 2.08, M 1.83, D 3.29, T 2.19, K 2.67, H 2.23, N 1.98, Y 2.19, E 2.85, C 2.18, I 2.22, A 2.37, L 1.86, F 1.79, R 2.21, W 2.44
S12: D 2.53, I 2.12, W 1.98, Y 1.75, C 2.46, P 2.25, Q 2.26, R 1.56, V 2.56, A 1.74, G 2.36, T 2.01, E 1.7, N 2.37, K 1.56, F 2.65, M 1.99, L 2.27, H 3.01

Variants of: B2
Assay: as above
Settings: c terminus: a fixed tail appended

Protein stability index, by site and new letter:
Q24: K 4.39, C 3.59, I 2.4, D 3.81, V 3.24, E 4.59, N 4.19, S 3.57, Y 2.79, P 2.74, M 2.88, H 3.64, T 3.78, L 2.49, A 3.88, W 2.73
R22: S 4.79, W 2.46, T 3.76, Q 3.57, Y 3.82
N23: R 3.26, V 3.33, C 2.37, A 2.99, I 2.32, E 3.52, P 3.03, D 3.85, F 4.65, H 2.74, Q 3.14, L 2.35
